From the Immune Epitope Database (IEDB)

Legend:
HLA-A*01:01 = assay: IEDB peptide-MHC binding, purified MHC/direct/fluorescence; filed as Kd, often an IC50 or EC50 that approximates it; ≥ and ≤ were set here for values at or beyond the usual limits of such assays
HLA-A*02:01 [1] = assay: as above
HLA-A*03:01 [2] = assay: as above
HLA-A*11:01 = assay: as above
HLA-A*24:02 = assay: as above
HLA-A*31:01 [3] = assay: as above
HLA-A*69:01 [4] = assay: as above
HLA-B*07:02 = assay: as above
HLA-B*08:02 = assay: as above
HLA-B*15:01 [5] = assay: as above
HLA-B*18:01 [6] = assay: as above
HLA-B*27:05 = assay: as above
HLA-B*40:01 = assay: as above
HLA-B*44:02 = assay: as above
HLA-B*46:01 [7] = assay: as above
HLA-B*58:01 = assay: as above
HLA-A*02:01 [8] = assay: IEDB peptide-MHC binding, purified MHC/competitive/fluorescence; filed as Kd, often an IC50 or EC50 that approximates it; ≥ and ≤ were set here for values at or beyond the usual limits of such assays
HLA-A*02:03 = assay: as above
HLA-A*02:11 = assay: as above
HLA-A*02:12 [9] = assay: as above
HLA-A*02:16 = assay: as above
HLA-A*02:19 = assay: as above
HLA-A*03:01 [10] = assay: as above; settings: source organism: Entamoeba histolytica HM-1:IMSS
HLA-A*24:03 = assay: as above
HLA-A*26:01 = assay: as above
HLA-A*29:02 [11] = assay: as above
HLA-A*68:02 = assay: as above
HLA-A*69:01 [12] = assay: as above
HLA-B*15:01 [13] = assay: as above
HLA-B*15:17 = assay: as above; settings: source organism: Entamoeba histolytica HM-1:IMSS
HLA-B*18:01 [14] = assay: as above
HLA-B*27:03 = assay: as above
HLA-B*39:01 = assay: as above
HLA-B*46:01 [15] = assay: as above
HLA-B*51:01 = assay: as above
HLA-B*57:01 = assay: as above
HLA-B*08:01 = assay: IEDB peptide-MHC binding, purified MHC/direct/fluorescence; filed as Kd, often an IC50 or EC50 that approximates it; ≥ and ≤ were set here for values at or beyond the usual limits of such assays; settings: source organism: Vibrio parahaemolyticus AQ3810
HLA-B*15:09 = assay: as above
HLA-A*31:01 [16] = assay: IEDB peptide-MHC binding, purified MHC/competitive/fluorescence; filed as Kd, often an IC50 or EC50 that approximates it; ≥ and ≤ were set here for values at or beyond the usual limits of such assays; settings: source organism: Cryptosporidium parvum Iowa II
HLA-A*29:02 [17] = assay: IEDB peptide-MHC binding, purified MHC/direct/fluorescence; filed as Kd, often an IC50 or EC50 that approximates it; ≥ and ≤ were set here for values at or beyond the usual limits of such assays; settings: source organism: Mammarenavirus juninense
HLA-A*80:01 = assay: as above; settings: source organism: Mammarenavirus juninense
HLA-A*02:12 [18] = assay: as above; settings: source organism: Ravn virus - Ravn, Kenya, 1987
HLA-C*03:03 = assay: as above; settings: source organism: Orthomarburgvirus marburgense
[19] = source organism: Coxiella burnetii
[20] = source organism: Entamoeba histolytica HM-1:IMSS
[21] = source organism: Vibrio parahaemolyticus
[22] = source organism: Vibrio parahaemolyticus AQ3810
[23] = source organism: Rickettsia bellii
[24] = source organism: Cryptosporidium parvum Iowa II
[25] = source organism: Marburg virus - Musoke, Kenya, 1980

Measured: Kd

AISRLRTQK
≥ 20 µM: HLA-A*01:01; [19] | HLA-A*02:01 [1]; [19] | HLA-A*24:02; [19] | HLA-A*69:01 [4]; [19] | HLA-B*07:02; [19] | HLA-B*08:02; source organism: Coxiella burnetii Q321 | HLA-B*15:01 [5]; [19] | HLA-B*18:01 [6]; [19] | HLA-B*27:05; [19] | HLA-B*40:01; [19] | HLA-B*44:02; [19] | HLA-B*46:01 [7]; [19] | HLA-B*58:01; [19]
0.0995 µM: HLA-A*11:01; [19]
0.386 µM: HLA-A*03:01 [2]; [19]
0.344 µM: HLA-A*31:01 [3]; [19]

IEAKINVAD
0.389 µM: HLA-B*18:01 [14]; [20]
≥ 20 µM: HLA-A*02:01 [8]; [20] | HLA-A*02:03; [20] | HLA-A*02:11; [20] | HLA-A*02:12 [9]; [20] | HLA-A*02:16; [20] | HLA-A*02:19; [20] | HLA-A*03:01 [10] | HLA-A*24:03; [20] | HLA-A*26:01; [20] | HLA-A*29:02 [11]; [20] | HLA-A*68:02; [20] | HLA-A*69:01 [12]; [20] | HLA-B*15:01 [13]; [20] | HLA-B*15:17 | HLA-B*27:03; [20] | HLA-B*39:01; [20] | HLA-B*46:01 [15]; [20] | HLA-B*51:01; [20] | HLA-B*57:01; [20]

LAIDRDDLY
0.0053 µM: HLA-A*29:02 [11]; source organism: Mycobacterium tuberculosis variant bovis BCG str. Pasteur 1173P2

MLDQFGVSY
0.021 µM: HLA-A*01:01; [21]
0.143 µM: HLA-B*15:01 [5]; [21]
≥ 20 µM: HLA-A*02:01 [1]; [21] | HLA-A*03:01 [2]; [21] | HLA-A*11:01; [21] | HLA-A*24:02; [21] | HLA-A*31:01 [3]; [21] | HLA-A*69:01 [4]; [21] | HLA-B*07:02; [21] | HLA-B*08:01 | HLA-B*08:02; [22] | HLA-B*15:09; [22] | HLA-B*27:05; [21] | HLA-B*40:01; [21] | HLA-B*44:02; [21] | HLA-B*58:01; [21]

NIDPEHLDY
≥ 20 µM: HLA-A*02:01 [1]; [23] | HLA-A*03:01 [2]; [23] | HLA-A*11:01; [23] | HLA-A*24:02; [23] | HLA-A*31:01 [3]; [23] | HLA-A*69:01 [4]; [23] | HLA-B*07:02; [23] | HLA-B*15:01 [5]; [23] | HLA-B*15:09; source organism: Rickettsia typhi str. Wilmington | HLA-B*18:01 [6]; [23] | HLA-B*27:05; [23] | HLA-B*40:01; [23] | HLA-B*44:02; [23] | HLA-B*46:01 [7]; [23] | HLA-B*58:01; [23]
0.0326 µM: HLA-A*01:01; [23]

RGRKPIFRK
0.0532 µM: HLA-A*31:01 [16]
≥ 20 µM: HLA-A*02:01 [8]; [24] | HLA-A*02:03; [24] | HLA-A*02:11; [24] | HLA-A*02:12 [9]; [24] | HLA-A*02:16; [24] | HLA-A*02:19; [24] | HLA-A*24:03; [24] | HLA-A*26:01; [24] | HLA-A*29:02 [11]; [24] | HLA-A*68:02; [24] | HLA-A*69:01 [12]; [24] | HLA-B*15:01 [13]; [24] | HLA-B*18:01 [14]; [24] | HLA-B*27:03; [24] | HLA-B*39:01; [24] | HLA-B*46:01 [15]; [24] | HLA-B*51:01; [24] | HLA-B*57:01; [24]

VSDRPVMRY
0.185 µM: HLA-A*01:01; source organism: Mammarenavirus juninense
0.117 µM: HLA-A*29:02 [17]
0.36 µM: HLA-A*80:01

YMQQVSEGL
0.498 µM: HLA-C*03:03
0.153 µM: HLA-A*02:01 [1]; [25]
1.38 µM: HLA-A*69:01 [4]; [25]
0.002 µM: HLA-A*02:12 [18]
